Legend:
Test in all cases: co-IP; HEK293 cells co-transfected with HA-AP2M1 and myc-NCKX2-loop variants; lysate (50 mM Tris-Cl pH 7.4, 150 mM NaCl, 1 mM EDTA, 0.5% Triton X-100) incubated with anti-c-myc agarose overnight at 4°C; eluted with c-myc peptide; anti-HA blot, densitometry, n = 5
Details in all cases: partners not purified
[1] = biological target: T1, c-myc-tagged cytoplasmic loop of NCKX2 (myc-NCKX2-loop), wild type (rat, UniProt O54701-1 288-478)
T1 construct: K+-dependent Na+/Ca2+ exchanger 2 (NCKX2), rat (NM_031743.2; O54701), cytoplasmic loop region, amino acids 288-478, in pcDNA3.1(+); also called WT; source: HEK293, transfected (calcium phosphate), in lysate; not shown: c-myc, N-terminal, kept
T1 sequence (looked up): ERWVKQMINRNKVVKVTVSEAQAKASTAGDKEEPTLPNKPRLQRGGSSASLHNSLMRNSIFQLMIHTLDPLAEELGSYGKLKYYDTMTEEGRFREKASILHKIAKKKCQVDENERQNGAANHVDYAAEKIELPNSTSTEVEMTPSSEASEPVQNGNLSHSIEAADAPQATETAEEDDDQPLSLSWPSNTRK

[2] = biological target: T2, c-myc-tagged cytoplasmic loop of NCKX2, Y371A mutant (rat, UniProt O54701-1 288-478, Y371A)
T2 construct: K+-dependent Na+/Ca2+ exchanger 2 (NCKX2), rat (NM_031743.2; O54701), cytoplasmic loop region, amino acids 288-478, with Y371A; also called myc-NCKX2-loop Y371A; source: HEK293, transfected (calcium phosphate), in lysate; not shown: c-myc, N-terminal, kept
T2 sequence (looked up): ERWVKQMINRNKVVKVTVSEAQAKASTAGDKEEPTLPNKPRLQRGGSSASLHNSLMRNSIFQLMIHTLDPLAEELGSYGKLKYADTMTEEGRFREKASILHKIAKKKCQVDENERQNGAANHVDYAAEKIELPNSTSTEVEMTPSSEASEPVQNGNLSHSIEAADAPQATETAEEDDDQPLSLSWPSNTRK

[3] = biological target: T3, c-myc-tagged cytoplasmic loop of NCKX2, phosphomimetic mutant Y365E (rat, UniProt O54701-1 288-478, Y365E)
T3 construct: K+-dependent Na+/Ca2+ exchanger 2 (NCKX2), rat (NM_031743.2; O54701), cytoplasmic loop region, amino acids 288-478, with Y365E; also called myc-NCKX2-loop Y365E; source: HEK293, transfected (calcium phosphate), in lysate; not shown: c-myc, N-terminal, kept
T3 sequence (looked up): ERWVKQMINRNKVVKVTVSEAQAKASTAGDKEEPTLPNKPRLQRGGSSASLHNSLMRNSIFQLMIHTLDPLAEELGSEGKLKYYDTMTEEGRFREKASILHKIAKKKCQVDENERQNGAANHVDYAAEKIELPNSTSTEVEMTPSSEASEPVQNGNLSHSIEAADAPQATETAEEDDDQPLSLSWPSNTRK

B1: HA-tagged AP2M1 (μ subunit of adaptor protein complex 2) (natural protein, UniProt P84092 1-435, looked up)
chain: MIGGLFIYNHKGEVLISRVYRDDIGRNAVDAFRVNVIHARQQVRSPVTNIARTSFFHVKRSNIWLAAVTKQNVNAAMVFEFLYKMCDVMAAYFGKISEENIKNNFVLIYELLDEILDFGYPQNSETGALKTFITQQGIKSQHQTKEEQSQITSQVTGQIGWRREGIKYRRNELFLDVLESVNLLMSPQGQVLSAHVSGRVVMKSYLSGMPECKFGMNDKIVIEKQGKGTADETSKSGKQSIAIDDCTFHQCVRLSKFDSERSISFIPPDGEFELMRYRTTKDIILPFRVIPLVREVGRTKLEVKVVIKSNFKPSLLAQKIEVRIPTPLNTSGVQVICMKGKAKYKASENAIVWKIKRMAGMKESQISAEIELLPTNDKKKWARPPISMNFEVPFAPSGLKVRYLKVFEPKLNYSDHDVIKWVRYIGRSGIYETRC
notes: AP2M1, μ subunit of adaptor protein complex 2 (NM_053837.1; P84092), cloned into pcDNA3; gift from Dr. Ryan (Kim and Ryan, 2009); also called HA-AP2M1; μ subunit of AP-2; source: HEK293, transfected (calcium phosphate), in lysate
- amount of coimmunoprecipitated HA-AP2M1 [1]: 36.9
- amount of coimmunoprecipitated HA-AP2M1 [2]: 41.6
- amount of coimmunoprecipitated HA-AP2M1 [3]: 7.83
